Test results: patent publication US20250382373A1, “ANTI-EGFR/MET ANTIBODIES AND USES THEREOF” (Biocytogen Pharmaceuticals (Beijing) Co., Ltd., priority 2022, published 2025)

B1: Telisotuzumab analog-ADC (conjugate, chains of the INN, looked up)
VH: QVQLVQSGAEVKKPGASVKVSCKASGYIFTAYTMHWVRQAPGQGLEWMGWIKPNNGLANYAQKFQGRVTMTRDTSISTAYMELSRLRSDDTAVYYCARSEITTEFDYWGQGTLVTVSS
VL: DIVMTQSPDSLAVSLGERATINCKSSESVDSYANSFLHWYQQKPGQPPKLLIYRASTRESGVPDRFSGSGSGTDFTLTISSLQAEDVAVYYCQQSKEDPLTFGGGTKVEIK
modifications: antibody-drug conjugate payload
B2: Amivantamab: Amivantamab (Janssen, Reference No.: LFS0L03), bispecific antibody targeting EGFR and MET (antibody, chains of the INN, looked up, V domains shown)
VH: QVQLVESGGGVVQPGRSLRLSCAASGFTFSTYGMHWVRQAPGKGLEWVAVIWDDGSYKYYGDSVKGRFTISRDNSKNTLYLQMNSLRAEDTAVYYCARDGITMVRGVMKDYFDYWGQGTLVTVSS
VL: AIQLTQSPSSLSASVGDRVTITCRASQDISSALVWYQQKPGKAPKLLIYDASSLESGVPSRFSGSESGTDFTLTISSLQPEDFATYYCQQFNSYPLTFGGGTKVEIK
VH2: QVQLVQSGAEVKKPGASVKVSCETSGYTFTSYGISWVRQAPGHGLEWMGWISAYNGYTNYAQKLQGRVTMTTDTSTSTAYMELRSLRSDDTAVYYCARDLRGTNYFDYWGQGTLVTVSS
VL2: DIQMTQSPSSVSASVGDRVTITCRASQGISNWLAWFQHKPGKAPKLLIYAASSLLSGVPSRFSGSGSGTDFTLTISSLQPEDFATYYCQQANSFPITFGQGTRLEIK

Assays:
NUGC-4 cells = assay: NUGC-4 xenograft model (gastric cancer); assay type: in vivo, B-NDG mice; conditions: 3 mg/kg i.v. QW x2
[1] = test system: patient-derived gastric tumor fragments; assay: Human gastric cancer PDX model; assay type: in vivo, B-NDG mice; conditions: 10 mg/kg i.v. BIW x6
Protocol: The mice were then injected with PBS, ADCs or Amivantamab (Janssen, Reference No.: LFS01L03) by intravenous (i.v.) administration.

[2] = test system: patient-derived ampullary tumor fragments; assay: Human ampullary carcinoma PDX model; assay type: in vivo, B-NDG mice; conditions: 10 mg/kg i.v. BIW x4
Protocol: The ADCs were tested for their effect in human ampullary carcinoma PDX model.
The mice were then injected with PBS, ADCs or Amivantamab (Janssen, Cat #: LFS0L03) by intravenous (i.v.) administration.

NCI-H1975 cells = assay: NCI-H1975 xenograft in Balb/c nude mice; assay type: in vivo; conditions: 10 mg/kg, BIW, 4 administrations, i.v.
Protocol: The mice were then injected with PBS, E-6C4-M-2F II-ADC (1.5 mg/kg, 3 mg/kg or 6 mg/kg, QW, 2 administrations in total) or Amivantamab (Janssen, Reference No.: LFS0L03) (10 mg/kg, BIW, 4 administrations in total) by intravenous (i.v.) administration.

Row | Molecule | Tumor volume Day 14 (NUGC-4 cells) | TGI (%) (NUGC-4 cells; Day 28) | Tumor volume Day 0 (NUGC-4 cells; day of grouping) | Tumor volume Day 28 (NUGC-4 cells; end of experiment) | Tumor-free (Day 28) (NUGC-4 cells; number of tumor-free mice/total) | Tumor volume Day 28 [1] | Tumor volume Day 56 [1] | TGI (%) ([1]; Day 56) | Tumor volume Day 0 ([1]; day of grouping) | Survival ([1]; surviving/total mice) | Tumor volume Day 14 [2] | Tumor volume Day 21 [2] | TGI (%) ([2]; Day 21) | Tumor volume Day 0 ([2]; day of grouping) | TGI (NCI-H1975 cells)
1 | B1 | 60 ± 10 mm^3 | 108.1% | 198 ± 14 mm^3 | 88 ± 67 mm^3 | 0/5 | – | – | – | – | – | – | – | – | – | –
2 | B2 | – | – | – | – | – | 40 ± 6 mm^3 | 643 ± 391 mm^3 | 86.3% | 262 ± 24 mm^3 | 5/5 | 756 ± 78 mm^3 | 1047 ± 104 mm^3 | 8% | 273 ± 13 mm^3 | 12.9%
